The results in this text go back to patent US20240042018A1 (University of Washington, published 2024).

Test [1] concerns the target I53-50B.4PT1 pentamer. The test can be described thus: nanoparticle assembly grade, Table 3.
Test [2] concerns the target I53-50B.4PT1 pentamer. The test can be described thus: in vitro nanoparticle assembly (Table 3; '-' means no nanoparticle assembly).
In test [3] the target is T1, I53_dn5B trimer.
T1 chain: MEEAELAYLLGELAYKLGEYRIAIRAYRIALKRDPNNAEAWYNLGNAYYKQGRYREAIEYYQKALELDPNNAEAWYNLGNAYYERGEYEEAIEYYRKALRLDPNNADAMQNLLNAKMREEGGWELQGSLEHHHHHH
Nature of the test: in vitro nanoparticle assembly, SEC.

Test [4] deals with T1, I53_dn5B trimer. Nature of the test: nanoparticle assembly grade, Table 3.

B1: SEQ ID NO 70 (I53-50A_4gly) (designed binder)
chain: EELFKKHKIVAVLRANSVEEAIEKAVAVFAGGVHLIEITFTVPDADTVIKALSVLKEKGAIIGAGTVFSNETCRKAVESNATFIVSPHLDEEISNFTKEKNVTYMPGVMTPTELVKAMKLGHTILKLFPGEVVGPQFVKAMKGPFPNVKFVPTGGVNLDNVCEWFKAGVLAVGVGSALVKGTPDEVREKAKAFVEKIRGC
modifications: N-linked glycans at sequons 69-FSNET-73; 81-NAT-83; 96-NFT-98; 102-NVT-104
On to B1, for which the binding result in test [1] was “binds”.

B2: SEQ ID NO 77 (I53-50A_7gly) (designed binder)
chain: EELFKKHKIVAVLRANSVEEAIEKAVAVFAGGVHLIEITFTVPNATTVIKALSVLKEKGAIIGAGTVTSVEYANETVESNATFIVSPHLDEEISNFTKEKNVTYMPGVMTPTELVKAMKLNVTILKLFPGEVVGPQFVKAMKGPFHNATFVPTGGVNLDNVCEWFKAGVLAVGVGSALVKGTPDEVREKAKAFVEKIRGC
modifications: N-linked glycans at sequons 45-NAT-47; 73-YANET-77; 81-NAT-83; 96-NFT-98; 102-NVT-104; 122-NVT-124; 146-FHNAT-150
B2: the binding result in test [2] is on record as “no binding”.

B3: SEQ ID NO 69 (I53-50A_4gly) (designed binder)
chain: EELFKKHKIVAVLRANSVEEAIEKAVAVFAGGVHLIEITFTVPDADTVIKALSVLKEKGAIIGAGTVTSVEQCRKAVESGAEFIVSPHLDEEISNFTKEKNVTYMPGVMTPTELVKAMKLNVTILKLFPGEVVGPQFVKAMKGPFHNATFVPTGGVNLDNVCEWFKAGVLAVGVGSALVKGTPDEVREKAKAFVEKIRGC
modifications: N-linked glycans at sequons 96-NFT-98; 102-NVT-104; 122-NVT-124; 146-FHNAT-150
In the case of B3, the binding result in test [1] is on record as “binds”.

B4: SEQ ID NO 71 (I53-50A_5gly) (designed binder)
chain: EELFKKHKIVAVLRANSVEEAIEKAVAVFAGGVHLIEITFTVPNATTVIKALSVLKEKGAIIGAGTVTSVEYANETVESGAEFIVSPHLDEEISNFTKEKGVFYMPGVMTPTELVKAMKLNVTILKLFPGEVVGPQFVKAMKGPFHNATFVPTGGVNLDNVCEWFKAGVLAVGVGSALVKGTPDEVREKAKAFVEKIRGC
modifications: N-linked glycans at sequons 45-NAT-47; 73-YANET-77; 96-NFT-98; 122-NVT-124; 146-FHNAT-150
For B4, the binding result in test [1] was “binds”.

B5: SEQ ID NO 68 (I53-50A_4gly) (designed binder)
chain: EELFKKHKIVAVLRANSVEEAIEKAVAVFAGGVHLIEITFTVPNATTVIKALSVLKEKGAIIGAGTVTSVEYANETVESNATFIVSPHLDEEISNFTKEKGVFYMPGVMTPTELVKAMKLGHTILKLFPGEVVGPQFVKAMKGPFPNVKFVPTGGVNLDNVCEWFKAGVLAVGVGSALVKGTPDEVREKAKAFVEKIRGC
modifications: N-linked glycans at sequons 45-NAT-47; 73-YANET-77; 81-NAT-83; 96-NFT-98
In the case of B5, in test [1], the binding result is given as “binds”.

B6: SEQ ID NO 75 (I53-50A_6gly) (designed binder)
chain: EELFKKHKIVAVLRANSVEEAIEKAVAVFAGGVHLIEITFTVPNATTVIKALSVLKEKGAIIGAGTVTSVEYANETVESGAEFIVSPHLDEEISNFTKEKNVTYMPGVMTPTELVKAMKLNVTILKLFPGEVVGPQFVKAMKGPFHNATFVPTGGVNLDNVCEWFKAGVLAVGVGSALVKGTPDEVREKAKAFVEKIRGC
modifications: N-linked glycans at sequons 45-NAT-47; 73-YANET-77; 96-NFT-98; 102-NVT-104; 122-NVT-124; 146-FHNAT-150
With B6, in test [2], the binding result is “no binding”.

B7: SEQ ID NO 74 (I53-50A_6gly) (designed binder)
chain: EELFKKHKIVAVLRANSVEEAIEKAVAVFAGGVHLIEITFTVPNATTVIKALSVLKEKGAIIGAGTVTSVEQCRKAVESNATFIVSPHLDEEISNFTKEKNVTYMPGVMTPTELVKAMKLNVTILKLFPGEVVGPQFVKAMKGPFHNATFVPTGGVNLDNVCEWFKAGVLAVGVGSALVKGTPDEVREKAKAFVEKIRGC
modifications: N-linked glycans at sequons 45-NAT-47; 81-NAT-83; 96-NFT-98; 102-NVT-104; 122-NVT-124; 146-FHNAT-150
In the case of B7, the binding result in test [1] was “binds”.

B8: SEQ ID NO 73 (I53-50A_6gly) (designed binder)
chain: EELFKKHKIVAVLRANSVEEAIEKAVAVFAGGVHLIEITFTVPNATTVIKALSVLKEKGAIIGAGTVFSNETCRKAVESGAEFIVSPHLDEEISNFTKEKNVTYMPGVMTPTELVKAMKLNVTILKLFPGEVVGPQFVKAMKGPFHNATFVPTGGVNLDNVCEWFKAGVLAVGVGSALVKGTPDEVREKAKAFVEKIRGC
modifications: N-linked glycans at sequons 45-NAT-47; 69-FSNET-73; 96-NFT-98; 102-NVT-104; 122-NVT-124; 146-FHNAT-150
With B8, in test [1], the binding result is given as “binds”.

B9: SEQ ID NO 76 (I53-50A_7gly) (designed binder)
chain: EELFKKHKIVAVLRANSVEEAIEKAVAVFAGGVHLIEITFTVPNATTVIKALSVLKEKGAIIGAGTVFSNETCRKAVESNATFIVSPHLDEEISNFTKEKNVTYMPGVMTPTELVKAMKLNVTILKLFPGEVVGPQFVKAMKGPFHNATFVPTGGVNLDNVCEWFKAGVLAVGVGSALVKGTPDEVREKAKAFVEKIRGC
modifications: N-linked glycans at sequons 45-NAT-47; 69-FSNET-73; 81-NAT-83; 96-NFT-98; 102-NVT-104; 122-NVT-124; 146-FHNAT-150
For the molecule B9, the binding result in test [2] is given as “no binding”.

B10: I53_dn5Acp7 PAS pentamer (designed binder)
chain: MGSHHHHHHGSDEQAEERAGTKAGNHGEDWGAAAVEMATKFNGSGGSGKYDGSKLRIGILHARGNAEIILELVLGALKRLQEFGVKRENIIIETVPGSFELPYGSKLFVEKQKRLGKPLDAIIPIGVLIRGSTAHFDYIADSTTHQLMKLNFELGIPVIFGVLTTESGGSASPAAPAPASPAAPAPSAPAAASPAAPAPASPAAPAPSAPAAASPAAPAPASPAAPAPSAPAA
Turning to B10, in test [3], the binding result is recorded as “binds”.

B11: SEQ ID NO 49 (I53_dn5A_3gly) (designed binder)
chain: KYDGSKLRIGILHARGNAEIILELVLGALKRLQEFGVKRENIIIETVPGSFELPYGSKLFVEKQKRLGKPLDAIIPIGVLIRNETAHFDYIADSTTHQLMKLNFELGIPVIFGVLTTNDTEQAEERAGTNATNHGEDWGAAAVEMATKFNLEEQKLISEEDLHHHHHH
modifications: N-linked glycans at sequons 83-NET-85; 118-NDT-120; 130-NAT-132
Regarding B11, in test [4], the binding result is “binds”.

B12: SEQ ID NO 51 (I53_dn5A_3gly) (designed binder)
chain: KYDGSKLRIGILHARGNAEIILELVLGALKRLQEFGVKRENIIIETVPGSFELPYGSKLFVEKQKRLGKPLDAIIPIGVLIRGNDTHFDYIADSTTHQLMKLNFELGIPVIFGVLTTNDTEQAEERAGTNATNHGEDWGAAAVEMATKFNLEEQKLISEEDLHHHHHH
modifications: N-linked glycans at sequons 84-NDT-86; 118-NDT-120; 130-NAT-132
Consider B12, for which, in test [4], the binding result is “binds”.

B13: SEQ ID NO 52 (I53_dn5A_2gly) (designed binder)
chain: KYDGSKLRIGILHARGNAEIILELVLGALKRLQEFGVKRENIIIETVPGSFELPYGSKLFVEKQKRLGKPLDAIIPIGVLIRNDTAHFDYIADSTTHQLMKLNFELGIPVIFGVLTTESDEQAEERAGTNATNHGEDWGAAAVEMATKFNLEEQKLISEEDLHHHHHH
modifications: N-linked glycans at sequons 83-NDT-85; 130-NAT-132
B13: the binding result in test [4] is recorded as “binds”.

B14: SEQ ID NO 53 (I53_dn5A_2gly) (designed binder)
chain: KYDGSKLRIGILHARGNAEIILELVLGALKRLQEFGVKRENIIIETVPGSFELPYGSKLFVEKQKRLGKPLDAIIPIGVLIRGNDTHFDYIADSTTHQLMKLNFELGIPVIFGVLTTESDEQAEERAGTKNGTHGEDWGAAAVEMATKFNLEEQKLISEEDLHHHHHH
modifications: N-linked glycans at sequons 84-NDT-86; 131-NGT-133
In the case of B14, in test [4], the binding result is reported as “binds”.

B15: SEQ ID NO 50 (I53_dn5A_3gly) (designed binder)
chain: KYDGSKLRIGILHARGNAEIILELVLGALKRLQEFGVKRENIIIETVPGSFELPYGSKLFVEKQKRLGKPLDAIIPIGVLIRGNDTHFDYIADSTTHQLMKLNFELGIPVIFGVLTTESNETAEERAGTKNGTHGEDWGAAAVEMATKFNLEEQKLISEEDLHHHHHH
modifications: N-linked glycans at sequons 84-NDT-86; 120-NET-122; 131-NGT-133
In the case of B15, the binding result in test [4] is listed as “binds”.

B16: SEQ ID NO 55 (I53_dn5A_2gly) (designed binder)
chain: KYDGSKLRIGILHARGNAEIILELVLGALKRLQEFGVKRENIIIETVPGSFELPYGSKLFVEKQKRLGKPLDAIIPIGVLIRGSTAHFDYIADSTTHQLMKLNFELGIPVIFGVLTTESNETAEERAGTNATNHGEDWGAAAVEMATKFNLEEQKLISEEDLHHHHHH
modifications: N-linked glycans at sequons 120-NET-122; 130-NAT-132
In the case of B16, in test [4], the binding result is recorded as “binds”.

B17: I53-50A_4gly trimer (designed binder)
chain: EELFKKHKIVAVLRANSVEEAIEKAVAVFAGGVHLIEITFTVPNATTVIKALSVLKEKGAIIGAGTVTSVEYANETVESGAEFIVSPHLDEEISNFTKEKGVFYMPGVMTPTELVKAMKLGHTILKLFPGEVVGPQFVKAMKGPFHNATFVPTGGVNLDNVCEWFKAGVLAVGVGSALVKGTPDEVREKAKAFVEKIRGCLEEQKLISEEDLHHHHHH
modifications: N-linked glycans at sequons 45-NAT-47; 73-YANET-77; 96-NFT-98; 146-FHNAT-150
B17: the binding result in test [1] is listed as “binds”.

B18: I53_dn5Acp7 pentamer with ELP fused to the C terminus (designed binder)
chain: MGSHHHHHHGSDEQAEERAGTKAGNHGEDWGAAAVEMATKFNGSGGSGKYDGSKLRIGILHARGNAEIILELVLGALKRLQEFGVKRENIIIETVPGSFELPYGSKLFVEKQKRLGKPLDAIIPIGVLIRGSTAHFDYIADSTTHQLMKLNFELGIPVIFGVLTTES
As for B18, the binding result in test [3] is recorded as “binds”.

B19: I53_dn5A_D120C pentamer coupled to 1 kDa PEG (designed binder)
chain: MGKYDGSKLRIGILHARGNAEIILALVLGALKRLQEFGVKRENIIIETVPGSFELPYGSKLFVEKQKRLGKPLDAIIPIGVLIRGSTPHFDYIADSTTHQLMKLNFELGIPVIFGVITADTCEQAEARAGLIEGKMHNHGEDWGAAAVEMATKFNGGWELQLEGSHHHHHH
With B19, the binding result in test [3] is recorded as “binds”.

B20: I53_dn5A_D120C pentamer coupled to 2 kDa PEG (designed binder)
chain: MGKYDGSKLRIGILHARGNAEIILALVLGALKRLQEFGVKRENIIIETVPGSFELPYGSKLFVEKQKRLGKPLDAIIPIGVLIRGSTPHFDYIADSTTHQLMKLNFELGIPVIFGVITADTCEQAEARAGLIEGKMHNHGEDWGAAAVEMATKFNGGWELQLEGSHHHHHH
B20: in test [3], the binding result is on record as “binds”.

B21: I53_dn5A_S84C_D120C pentamer coupled to 1 kDa PEG (designed binder)
chain: MGKYDGSKLRIGILHARGNAEIILALVLGALKRLQEFGVKRENIIIETVPGSFELPYGSKLFVEKQKRLGKPLDAIIPIGVLIRGCTPHFDYIADSTTHQLMKLNFELGIPVIFGVITADTCEQAEARAGLIEGKMHNHGEDWGAAAVEMATKFNGGWELQLEGSHHHHHH
For B21, the binding result in test [3] is recorded as “binds”.

B22: I53_dn5A_S84C_D120C pentamer coupled to 5 kDa PEG (designed binder)
chain: MGKYDGSKLRIGILHARGNAEIILALVLGALKRLQEFGVKRENIIIETVPGSFELPYGSKLFVEKQKRLGKPLDAIIPIGVLIRGCTPHFDYIADSTTHQLMKLNFELGIPVIFGVITADTCEQAEARAGLIEGKMHNHGEDWGAAAVEMATKFNGGWELQLEGSHHHHHH
modifications: 5 kDa PEG-maleimide on Cys84 and Cys120
As for B22, in test [3], the binding result is given as “binds”.

B23: I53_dn5A_2C2kPEG pentamer (designed binder)
chain: MGKYDGSKLRIGILHARGNAEIILALVLGALKRLQEFGVKRENIIIETVPGSFELPYGSKLFVEKQKRLGKPLDAIIPIGVLIRGCTPHFDYIADSTTHQLMKLNFELGIPVIFGVITADTCEQAEARAGLIEGKMHNHGEDWGAAAVEMATKFNGGWELQLEGSHHHHHH
Turning to B23, the binding result in test [3] is reported as “binds”.
